Experimental data: US20120034215A1 (Daiichi Sankyo, published 2012)
Substitutions are numbered along the chain they refer to.

B1: MOR07923 (human IgG1) (antibody, V domains shown)
VH: QVQLVESGGGLVQPGGSLRLSCAASGFTFNSYSMSWVRQAPGKGLEWVSYISSRSSTTYYADSVKGRFTISRDNSKNTLYLQMNSLRAEDTAVYYCARGYFHGMDYWGQGTLVTVSS
VL: DIVLTQSPATLSLSPGERATLSCRASQSVSFDYLGWYQQKPGQAPRLLIYGASNRATGVPARFSGSGSGTDFTLTISSLEPEDFATYYCFQYLIVPFTFGQGTKVEIKR
B2: MOR07692 (human IgG1) (antibody, V domains shown)
VH: B1 VH
VL: B1 VL with F90Q, L93Y, I94N, V95M, F97Y
B3: MOR07926 (human IgG1) (antibody, V domains shown)
VH: B1 VH
VL: B1 VL with Y92A, V95M
B4: MOR07924 (human IgG1) (antibody, V domains shown)
VH: B1 VH
VL: B1 VL with F90Q, L93N, V95N
B5: MOR07925 (human IgG1) (antibody, V domains shown)
VH: B1 VH
VL: B1 VL with F90L, L93F, I94N, V95P, F97H

Columns and labels:
[1] = molecular target: MST1R on cells (293alpha cells transfected with pcDNA-DEST40 MST1R; endogenous on PC3, T-47D and BxPC-3 cells) (human, UniProt Q04912 25-1400); experiment: cell-based or functional assay
[2] = molecular target: T1, mouse MST1R with N-terminal Flag tag, expressed on HEK293T cells (mouse, UniProt Q62190 24-1378); experiment: flow cytometry on HEK293T cells transfected with Flag-tagged mouse MST1R (expression shown by αFlag), FITC-labeled secondary antibody
T1 construct: ORF cloned excluding the signal peptide region; not shown: N-terminal Flag tag from vector pFLAG-myc-CMV-19 (Sigma)
T1 sequence: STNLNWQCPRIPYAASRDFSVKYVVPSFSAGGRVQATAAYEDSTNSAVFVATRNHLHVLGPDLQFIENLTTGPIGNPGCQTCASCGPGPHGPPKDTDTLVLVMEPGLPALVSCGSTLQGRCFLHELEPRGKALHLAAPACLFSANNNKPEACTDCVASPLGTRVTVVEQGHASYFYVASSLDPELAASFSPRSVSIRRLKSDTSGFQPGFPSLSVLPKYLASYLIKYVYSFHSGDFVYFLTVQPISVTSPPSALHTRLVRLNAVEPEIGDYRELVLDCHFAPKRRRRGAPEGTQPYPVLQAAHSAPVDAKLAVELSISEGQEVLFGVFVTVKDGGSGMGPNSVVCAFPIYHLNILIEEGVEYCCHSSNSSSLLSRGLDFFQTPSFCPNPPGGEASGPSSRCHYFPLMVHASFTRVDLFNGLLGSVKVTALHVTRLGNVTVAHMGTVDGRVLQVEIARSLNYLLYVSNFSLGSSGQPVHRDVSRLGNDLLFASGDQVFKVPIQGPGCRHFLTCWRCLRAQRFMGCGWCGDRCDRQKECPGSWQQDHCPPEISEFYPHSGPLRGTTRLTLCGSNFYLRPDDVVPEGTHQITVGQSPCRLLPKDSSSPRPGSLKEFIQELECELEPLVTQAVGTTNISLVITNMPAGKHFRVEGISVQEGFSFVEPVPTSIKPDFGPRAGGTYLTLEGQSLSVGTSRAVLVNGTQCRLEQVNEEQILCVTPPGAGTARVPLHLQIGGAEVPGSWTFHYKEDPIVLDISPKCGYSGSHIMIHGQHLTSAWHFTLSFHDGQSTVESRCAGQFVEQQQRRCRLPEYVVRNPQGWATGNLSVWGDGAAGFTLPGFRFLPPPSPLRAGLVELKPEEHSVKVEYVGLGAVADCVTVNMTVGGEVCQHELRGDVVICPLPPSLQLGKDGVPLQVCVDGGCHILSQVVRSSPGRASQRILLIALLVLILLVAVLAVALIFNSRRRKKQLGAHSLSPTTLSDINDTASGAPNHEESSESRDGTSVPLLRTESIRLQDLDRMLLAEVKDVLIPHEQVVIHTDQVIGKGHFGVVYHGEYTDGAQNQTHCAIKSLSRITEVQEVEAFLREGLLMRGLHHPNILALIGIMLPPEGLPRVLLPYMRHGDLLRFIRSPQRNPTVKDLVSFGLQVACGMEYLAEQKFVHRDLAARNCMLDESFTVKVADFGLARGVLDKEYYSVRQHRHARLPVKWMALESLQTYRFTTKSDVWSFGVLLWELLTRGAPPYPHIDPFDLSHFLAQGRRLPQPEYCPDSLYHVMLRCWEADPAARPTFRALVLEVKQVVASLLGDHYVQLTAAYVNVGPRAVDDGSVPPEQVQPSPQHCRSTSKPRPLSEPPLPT
Description: Cells (5×10⁵ cells/well) were incubated with Fab or IgG antibodies at the indicated concentrations in 50 μl FACS buffer (PBS, 5% FCS) for 60 min at 4° C. in round bottom 96-well culture plates (Corning). Cells were washed twice and then incubated with Fluorescein Isothiocyanate (FITC) conjugated detection antibody for 30 min at 4° C. Cells were washed again, resuspended in 0.3 ml FACS buffer and then analyzed by flow cytometry in a Cytomics FC500 (Beckman Coulter, Inc.). Data were analysed via FlowJo software (Tomy digital biology Co., Ltd.). Polyclonal goat anti-hMSP R IgG (R&D systems) or anti-FLAG M2 antibody (Sigma) was used as a positive control and MOR03207 (anti-lysozyme) antibody was used as a negative control.
FACS-analysis of MST1R ortholog-expressing cells: Human MST1R (cDNA nucleotide sequence is shown as GenBank Accession No: NM_{—}002447.2), cynomolgus monkey MST1R and mouse MST1R (cDNA nucleotide sequence is shown as GeneBank Accession No: NM_{—}009074.1) expression vector containing N-terminal Flag tag (pFLAG-myc-CMV-19, Sigma) were constructed. cDNA encoding cynomolgus monkey MST1R was amplified by PCR using cynomolgus monkey stomach cDNA as a template with forward and reverse primers having nucleotide sequences of SEQ ID NO: 34 and 35, respectively. By sequencing analysis of PCR product, the cynomolgus MST1R ORF nucleotide sequence was identified as shown in SEQ ID NO: 36. The corresponding amino acid sequence was shown in SEQ ID NO: 37. Then human, cynomolgus monkey and mouse MST1R ORF cDNA, excluding signal peptide regions, were amplified using respective forward and reverse primers having nucleotide sequences of SEQ ID NO: 38 and 39 (human), 40 and 41 (cynomolgus monkey), and 42 and 43 (mouse) with appropriate cloning sites and then cloned into pFLAG-myc-CMV-19. An amplified human MST1R fragment encodes amino acids corresponding to GenBank Accession No: NP_{—}002438.2 (SEQ ID NO: 45). A Mouse MST1R fragment encodes amino acids corresponding to GenBank Accession No: NP_{—}033100.1 (SEQ ID NO: 47) except for those amino acid differences at positions: 688 (Leu to Pro), 713 (Ile to Val), 714 (Ala to Gly) and 719 (Ala to Val). These expression vectors were transfected into HEK293T cells. For FACS-analysis, cells were incubated with 2 μg/ml primary antibodies followed by incubation with FITC-labeled secondary antibody as described above.

Reporter assay IC50 (ng/ml); Elk1 luciferase reporter gene assay in the presence of 100 ng/ml MSP [1]	binding result [2]	Binder
9 ng/mL	no binding (tested: 2 µg/ml)	B1
4.4 ng/mL	no binding (tested: 2 µg/ml)	B2
11.4 ng/mL	no binding (tested: 2 µg/ml)	B3
15.7 ng/mL	no binding (tested: 2 µg/ml)	B4
5.9 ng/mL	no binding (tested: 2 µg/ml)	B5
